Results: patent US20240158497A1 (published 2024)

T1: Macaca Fascicularis GP130 extracellular domain expressed with a C-terminal myc-myc-hexahistidine tag (Macaca fascicularis, UniProt P40189 23-619 (human entry))
T1 construct: also called mfGP130-MMH; mfGP130-mmH
T1 chain: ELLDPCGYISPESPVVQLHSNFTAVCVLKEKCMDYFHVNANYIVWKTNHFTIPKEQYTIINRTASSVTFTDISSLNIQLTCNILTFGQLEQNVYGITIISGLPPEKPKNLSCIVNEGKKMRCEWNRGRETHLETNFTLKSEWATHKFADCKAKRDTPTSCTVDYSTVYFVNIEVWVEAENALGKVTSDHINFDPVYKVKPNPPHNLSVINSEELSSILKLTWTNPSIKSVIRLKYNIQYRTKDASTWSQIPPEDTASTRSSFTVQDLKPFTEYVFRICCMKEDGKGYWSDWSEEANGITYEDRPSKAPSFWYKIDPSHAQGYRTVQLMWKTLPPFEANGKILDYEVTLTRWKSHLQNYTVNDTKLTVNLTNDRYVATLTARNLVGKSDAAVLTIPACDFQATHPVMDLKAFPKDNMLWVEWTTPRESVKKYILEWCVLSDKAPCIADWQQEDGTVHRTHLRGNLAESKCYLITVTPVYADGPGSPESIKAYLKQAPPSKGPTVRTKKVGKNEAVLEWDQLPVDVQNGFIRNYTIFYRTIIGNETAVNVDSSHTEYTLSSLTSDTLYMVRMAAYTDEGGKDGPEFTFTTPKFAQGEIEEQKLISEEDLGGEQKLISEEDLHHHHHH

T2: extracellular domain of human LEPR, GPI-anchored, on HEK293/hLEPR-GPI cells (human, UniProt P48357 22-839, GPI anchor at the C-terminus ; GPI anchor at the C-terminus, added through the carboxypeptidase M signal peptide. The N-terminal myc-myc tag is not written.)
T2 sequence: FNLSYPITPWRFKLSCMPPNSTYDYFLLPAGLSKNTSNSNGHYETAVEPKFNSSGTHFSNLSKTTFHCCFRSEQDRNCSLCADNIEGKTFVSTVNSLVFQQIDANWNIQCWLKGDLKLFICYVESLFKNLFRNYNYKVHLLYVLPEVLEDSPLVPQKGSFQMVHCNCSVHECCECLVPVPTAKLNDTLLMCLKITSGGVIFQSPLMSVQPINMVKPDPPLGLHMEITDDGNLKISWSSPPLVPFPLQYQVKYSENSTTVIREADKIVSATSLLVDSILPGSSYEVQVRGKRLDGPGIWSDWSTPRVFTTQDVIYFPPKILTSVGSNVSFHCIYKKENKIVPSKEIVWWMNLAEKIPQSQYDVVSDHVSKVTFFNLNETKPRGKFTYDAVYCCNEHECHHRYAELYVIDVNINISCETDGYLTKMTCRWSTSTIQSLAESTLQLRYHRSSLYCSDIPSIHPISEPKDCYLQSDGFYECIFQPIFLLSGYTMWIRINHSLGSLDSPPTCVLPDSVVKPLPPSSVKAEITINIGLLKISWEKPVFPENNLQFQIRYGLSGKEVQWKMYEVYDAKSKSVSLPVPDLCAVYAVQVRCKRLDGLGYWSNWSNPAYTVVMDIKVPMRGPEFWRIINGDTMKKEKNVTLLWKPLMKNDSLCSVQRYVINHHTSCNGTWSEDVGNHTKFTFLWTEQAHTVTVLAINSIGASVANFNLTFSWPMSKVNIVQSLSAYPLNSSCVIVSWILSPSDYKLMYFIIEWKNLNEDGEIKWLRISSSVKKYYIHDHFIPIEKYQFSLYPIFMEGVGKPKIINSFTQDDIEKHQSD

B1: bsAb21236D (bispecific antibody, V domains shown)
VH 1: QVQLQESGPGLVKPSQTLSLTCTVSGGSISSGGDYWSWIRQLPGKGLEWIGYIYYSGSAYYNPSLKSRGTISIDTSKNQFSLKLTSVTAADTAVYFCVKLRFLEWFLGGWFGPWGQGTLVTVSS
VH 2: QVQLVESGGGLVKPGGSLRLSCAASGFTFSDYYMTWIRQTPGKGLDWVSYISSSGTNKYNADSVKGRFTISRDNAKNSLYLQMNSLRAEDTAVYYCVRDPPWGMDVWGQGTTVTVSS
VL: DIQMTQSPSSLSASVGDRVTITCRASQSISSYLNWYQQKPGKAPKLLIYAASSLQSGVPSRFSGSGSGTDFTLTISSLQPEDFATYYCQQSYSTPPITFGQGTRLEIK
notes: LEPR x GP130 bispecific with common light chain; also called H4H21236D; bsAb21236 (LEPR × GP130)
B2: bsAb21237D (bispecific antibody, V domains shown)
VH 1: EVQLVESGGGLVQPGGSLRLSCAASGFTFSNYGMTWVRQAPGKGLEWVSAITGGGGSTYYSNSVKGRFTISRDNSKNTVYLRMNSVRAEDTAVYYCAKYKWNFVDDWGQGTTVTVSS
VH 2: QVQLVESGGGLVKPGGSLRLSCAASGFTFSDYYMTWIRQTPGKGLDWVSYISSSGTNKYNADSVKGRFTISRDNAKNSLYLQMNSLRAEDTAVYYCVRDPPWGMDVWGQGTTVTVSS
VL: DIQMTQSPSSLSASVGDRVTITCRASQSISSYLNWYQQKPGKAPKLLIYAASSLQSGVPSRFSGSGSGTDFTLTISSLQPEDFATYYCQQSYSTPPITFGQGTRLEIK
notes: LEPR x GP130 bispecific with common light chain; also called H4H21237D; bsAb21237 (LEPR × GP130)

Legend:
[1] = target: T3, human GP130 extracellular domain expressed with a C-terminal myc-myc-hexahistidine tag (human, UniProt P40189 23-619); assay: SPR, bsAb captured by anti-hFc, 25C
T3 construct: also called hGP130-MMH; hGP130-mmH
In short: (§1)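 Anti-hFc-captured bispecific antibodies received 3-fold serial dilutions of LEPR or GP130 (100 nM–3.7 nM) in HBS-ET, pH 7.4, injected for 4 min with 10 min dissociation at 25 °C or 37 °C. ka and kd came from a 1:1 binding model with mass transport limitation, and KD and t½ were calculated from these rate constants.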

[2] = target: T1, Macaca Fascicularis GP130 extracellular …; assay: SPR, bsAb captured by anti-hFc, 25C
In short: as §1

[3] = target: T2, extracellular domain of human LEPR, …; assay: FACS, 200 nM antibody on HEK293/hLEPR-GPI cells, no Leptin
Experimental: For the FACS analysis, 0.5×10^6 cells/well of HEK293 parental cells, HEK293/Stat3-luc/gp130-2 X Sort cells, and HEK293/hLEPR-GPI cells, were incubated with 200 nM of the conventional antibodies against either GP130 or LEPR or with LEPRxGP130 bispecific antibodies, along with isotype control antibodies at 4° C. in PBS (without calcium and magnesium) containing 2% FBS.
Cells were fixed using BD CytoFix™ (Becton Dickinson, #554655) and analyzed on an IQue® (Intellicyt) Flow Cytometer. Unstained and secondary antibody alone controls were also tested for all cell lines. The results were analyzed using ForeCyt® (IntelliCyt) and FlowJo version 10 softwares to determine the geometric means of fluorescence for viable cells.

Binder | 100 nM hGP130-MMH Bound (RU) [1] [RU] | Kd [1] [nM] | koff [1] [s⁻¹] | kon [1] [M⁻¹ s⁻¹] | t½ [1] [min] | 100 nM mfGP130-MMH Bound (RU) [2] [RU] | Kd [2] [nM] | koff [2] [s⁻¹] | kon [2] [M⁻¹ s⁻¹] | t½ [2] [min] | Binding Ratio, normalized to unstained sample (FL4-A) [3] [fold]
B1 | 12 | 140 | 0.00426 | 30300 | 2.7 | 21 | 104 | 0.00305 | 29400 | 3.8 | 4420
B2 | 17 | 55.2 | 0.00274 | 49600 | 4 | 18 | 53.4 | 0.00213 | 39800 | 5 | 6320
